We go through nine molecules from US10004812B2 (priority 2014, dated 2018).

Where two headings read alike, the source gives them in different places. *1 amine or outer side, *2 acyl side, *3 side chain or, on linkers, in order; H or OH if unused. Where a SMILES comes first, the peptide text is derived from it. [ ]: non-standard residue; d: D form. The star is where a group is joined. ξ: configuration not given here. NPrTuv(OPr) = CCCO[C@H](C[C@H](C(C)C)N(CCC)[*:1])c1nc(C(=O)[*:2])cs1; Dolaproine = CO[C@@H]([C@@H]1CCCN1)[C@@H](C)C(=O)O; Hexanoyl(6-maleimido) = O=C1C=CC(=O)N1CCCCCC(=O)*; X1 = COC(=O)[C@@H](C)C[C@H](Cc1ccc(O)cc1)N*; Dil = CC[C@H](C)[C@H](NC)[C@@H](CC(=O)O)OC; PABC = O=C(OCc1ccc(N[*:1])cc1)[*:2]; X2 = C[C@@H](N*)[C@@H](O)c1ccccc1; Cit = NC(=O)NCCC[C@H](N)C(=O)O; NMeV = CN[C@H](C(=O)O)C(C)C; ξIle = CC[C@H](C)C(N)C(=O)O; dPip = O=C(O)[C@H]1CCCCN1

Series [1] deals with HT1080 cells. Briefly: Cell proliferation arrest on HT1080 cells (CPA; crystal violet). The series is classed as cell-based. As for the experimental part: Microtubule inhibition activity and cytotoxic activity of each new derivative were evaluated through tubulin polymerization inhibition assay (TPI; Tubulin Polymerization assay kit; Cytoskeleton, Cat. #BKO11P), and cell proliferation arrest on HT1080 cells (CPA; crystal violet).

The next series concerns HT1080-FAP cell line. The format is cell-based. The settings on record: crystal violet viability, FIG. 6, read-out: cytotoxic activity IC50.
In series [2] the test system is rabbit reticulocyte cell-free lysates.
For series [3] the following is noted: Table 3, published data; cited from earlier work.
Series [4] relates to PAXF-736 pancreas cancer xenograft. Briefly: Anti-tumoral effect in patient-derived xenograft mouse model for pancreas cancer (PAXF-736). The series is classed as in vivo. The procedure:
Both types of immunoconjugates, recNgA- and cytolysin-conjugates, were evaluated for their anti-tumoral effect in vivo in a patient-derived xenograft mouse model for pancreas cancer (PAXF-736), previously selected for antigen expression.
Immunoconjugates were then administrated once a week intraperitoneally over 5 weeks. Tumor volume and body weight were measured every 2-3 days. Vehicle-treated and Gemcitabine-treated (150 mg/kg) PDX mice were used as negative and positive control groups, respectively.

A further series has as its target T1, recombinant human ENG (Homo sapiens, UniProt P17813).
T1 sequence (P17813 whole entry, looked up): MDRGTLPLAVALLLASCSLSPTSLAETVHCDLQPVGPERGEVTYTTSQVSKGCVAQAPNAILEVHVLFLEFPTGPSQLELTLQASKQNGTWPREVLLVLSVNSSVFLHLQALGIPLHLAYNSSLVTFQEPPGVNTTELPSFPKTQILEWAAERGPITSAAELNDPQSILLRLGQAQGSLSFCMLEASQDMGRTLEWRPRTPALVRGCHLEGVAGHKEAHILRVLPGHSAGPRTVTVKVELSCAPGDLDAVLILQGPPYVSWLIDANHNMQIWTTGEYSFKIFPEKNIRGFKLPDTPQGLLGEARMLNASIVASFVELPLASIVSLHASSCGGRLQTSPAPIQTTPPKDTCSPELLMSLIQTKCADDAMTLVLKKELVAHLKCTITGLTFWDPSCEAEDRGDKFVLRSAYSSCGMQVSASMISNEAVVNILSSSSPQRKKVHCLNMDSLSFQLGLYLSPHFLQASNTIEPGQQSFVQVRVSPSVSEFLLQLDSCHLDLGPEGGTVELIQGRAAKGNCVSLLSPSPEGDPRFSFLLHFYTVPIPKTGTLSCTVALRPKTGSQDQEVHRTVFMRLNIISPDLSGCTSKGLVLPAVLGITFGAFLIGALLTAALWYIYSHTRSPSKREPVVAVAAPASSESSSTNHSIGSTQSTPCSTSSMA
Briefly: ELISA binding to immobilized recombinant human ENG. As to conditions: FIG. 3a. Background: An ELISA detects its analyte on a solid surface through an enzyme-linked reagent.

Series [5] deals with HT1080 cells. Briefly: Flow cytometry cell binding, ENG-positive HT1080 cells. As to conditions: FIG. 3b. Also noted: species or system human. The procedure:
Purified anti-muENG mE12 and anti-huENG A5 antibodies were analyzed in ELISA for binding to recombinant ENG and using flow cytometry analysis (FACS).
(§1) Purified proteins A5-IgG and mE12-IgG were characterized by SDS-PAGE and size exclusion chromatography. Bioactivity was analyzed by ELISA, using recombinant mouse/human ENG and detection of bound antibodies with HRP-conjugated anti-human IgG antibodies. Cell binding was analyzed by flow cytometry, using ENG-positive HT1080 and ENG expressing mouse eEnd2. Melting points were determined by dynamic light scattering using a zetasizer nano. Affinities were determined by QCM using an Attana A100. Internalization study was performed by indirect immunofluorescence confocal microscopy on permeabilized cells, detecting bound and internalized antibodies with a FITC-labeled secondary antibody.
For orientation: In flow cytometry, cells or beads pass a laser one at a time.

Series [6] relates to HT1080 cells. Briefly: Internalization by indirect immunofluorescence confocal microscopy. The format is cell-based, human. The procedure: as §1
Preliminary internalization studies indicate rapid cellular internalization for A5-IgG against cells expressing human ENG. Indeed within 30 min, almost 90% of the A5-IgG is found within HT1080 cells.

Series [7] can be described thus: Melting point by dynamic light scattering (zetasizer nano). The series is classed as physicochemical. As to conditions: thermal stability. As for the experimental part: as §1

The IC50 is the concentration that gives 50% inhibition.

Experimental for recombinant human ENG: Bioactivity was analyzed by ELISA using recombinant ENG and detection of bound antibodies with HRP-conjugated anti-human IgG antibodies.

In the case of `CC[C@H](C)[C@@H]([C@@H](CC(=O)N1CCC[C@H]1[C@H](OC)[C@@H](C)C(=O)N[C@H](C)[C@@H](O)c1ccccc1)OC)N(C)C(=O)[C@@H](NC(=O)[C@@H](NC)C(C)C)C(C)C` [MMAE, reference compound] (H-[NMeV]V[Dil][Dolaproine]-X2), in the series with HT1080 cells [1], the IC50 fell in the range of 0.1 to 0.6 nM.
In the series with HT1080 cells [1] (Homo sapiens, HT-1080), `CCCO[C@H](C[C@H](C(C)C)N(CCC)C(=O)C(NC(=O)[C@H]1CCCCN1C(=O)OCc1ccc(NC(=O)[C@H](CCCNC(N)=O)NC(=O)[C@@H](NC(=O)CCCCCN2C(=O)C=CC2=O)C(C)C)cc1)[C@@H](C)CC)c1nc(C(=O)N[C@@H](Cc2ccc(O)cc2)C[C@H](C)C(=O)OC)cs1` (stereo partly drawn) [TAM467, Maleimido-Val-Cit-PABOCO-Tubulysin/Cytolysin-TAM461] ({Hexanoyl(6-maleimido)}-V[Cit][PABC][dPip][ξIle][NPrTuv(OPr)]-X1) showed an IC50 of 230 to 420 nM.
The same measure, in the same setting: in the case of `CCCO[C@H](C[C@H](C(C)C)N(CCC)C(=O)[C@@H](NC(=O)[C@H]1CCCCN1C)[C@@H](C)CC)c1nc(C(=O)N[C@@H](Cc2ccc(O)cc2)C[C@H](C)C(=O)NNC(=O)OCc2ccc(NC(=O)[C@@H](CCCNC(N)=O)NC(=O)[C@H](NC(=O)CCCCCN3C(=O)C=CC3=O)C(C)C)cc2)cs1` [TAM471, Maleimido-Val-Cit-PABOCO-Tubulysin/Cytolysin-TAM470] it was 17 to 42 nM.
Regarding `CCCO[C@H](C[C@H](C(C)C)N(CCC)C(=O)[C@@H](NC(=O)C(C(C)C(=O)OCc1ccc(NC(=O)[C@H](CCCNC(N)=O)NC(=O)[C@@H](NC(=O)CCCCCN2C(=O)C=CC2=O)C(C)C)cc1)[C@@H](C)CC)[C@@H](C)CC)c1nc(C(=O)N[C@@H](Cc2ccccc2)C[C@H](C)C(=O)O)cs1` (stereo partly shown) [TAM551], the IC50 with HT1080 cells [1] (Homo sapiens, HT-1080) stood at 90 nM.
Molecule `CCCO[C@H](C[C@H](C(C)C)N(CCC)C(=O)[C@@H](NC(=O)[C@H]1CCCCN1C)[C@@H](C)CC)c1nc(C(=O)N[C@@H](Cc2ccc(O)cc2)C[C@H](C)C(=O)NNC(=O)OCCOCCOCCOCCNC(=O)CCCCCN2C(=O)C=CC2=O)cs1` [TAM552] yielded an IC50 with HT1080 cells [1] (Homo sapiens, HT-1080) of 10 nM.
The molecule `CC[C@H](C)[C@H](NC(=O)[C@H]1CCCCN1C)C(=O)N(COC(=O)CC(C)C)[C@H](C[C@@H](OC(C)=O)c1nc(C(=O)N[C@@H](Cc2ccc(O)cc2)C[C@H](C)C(=O)O)cs1)C(C)C` [Tubulysin A, reference compound] displayed an IC50 in the series with HT1080 cells [1] of 0.04 to 0.2 nM.
“Nigrin b: native (WT) Nigrin b, type 2 ribosome-inactivating protein with A and B chains”: the results for the IC50 (with HT1080-FAP cell line; in [2]) were around 20 nM and around 0.0025 nM, respectively. Besides, the “Mouse LD50” value in series [3] is 12,000.00 μgkg^−1.

B1: OMTX505: recNgA immunoconjugate tested in vivo (conjugate)
heavy: QVQLVQSGAEVKKPGASVKVSCKASGYTFTENIIHWVRQAPGQGLEWMGWFHPGSGSIKYNEKFKDRVTMTADTSTSTVYMELSSLRSEDTAVYYCARHGGTGRGAMDYWGQGTLVTVSSASTKGPSVFPLAPSSKSTSGGTAALGCLVKDYFPEPVTVSWNSGALTSGVHTFPAVLQSSGLYSLSSVVTVPSSSLGTQTYICNVNHKPSNTKVDKKVEPKSCDKTHTCPPCPAPPVAGPSVFLFPPKPKDTLMISRTPEVTCVVVDVSHEDPEVKFNWYVDGVEVHNAKTKPREEQYNSTYRVVSVLTVLHQDWLNGKEYKCKVSNKGLPSSIEKTISKAKGQPREPQVYTLPPSRDELTKNQVSLTCLVKGFYPSDIAVEWESNGQPENNYKTTPPVLDSDGSFFLYSKLTVDKSRWQQGNVFSCSVMHEALHNHYTQKSLSLSPGK
light: DIQMTQSPSSLSASVGDRVTITCRASKSVSTSAYSYMHWYQQKPGKAPKLLIYLASNLESGVPSRFSGSGSGTDFTLTISSLQPEDFATYYCQHSRELPYTFGQGTKLEIKRTVAAPSVFIFPPSDEQLKSGTASVVCLLNNFYPREAKVQWKVDNALQSGNSQESVTEQDSKDSTYSLSSTLTLSKADYEKHKVYACEVTHQGLSSPVTKSFNRGEC
chain: MIDYPSVSFNLDGAKSATYRDFLSNLRKTVATGTYEVNGLPVLRRESEVQVKSRFVLVPLTNYNGNTVTLAVDVTNLYVVAFSGNANSYFFKDATEVQKSNLFVGTKQNTLSFTGNYDNLETAANTRRESIELGPSPLDGAITSLYHGDSVARSLLVVIQMVSEAARFRYIEQEVRRSLQQATSFTPNALMLSMENNWSSMSLEIQQAGNNVSPFFGTVQLLNYDHTHRLVDNFEELYKITGIAILLFRCSSPSND
With B1, the “in vivo anti-tumoral efficacy” value in series [4] (0.5 mg/kg, once a week i.p. over 5 weeks, single agent) was found to be 60%. Besides, the tumor growth inhibition in [4] (combined with Gemcitabine, tumor regression) was determined as 100%.

B2: A5-IgG1: human anti-human Endoglin IgG1; heavy chain SEQ ID NO: 3, light chain SEQ ID NO: 4; ADCC/CDC deficient (antibody)
heavy: EVQLLESGGGLVQPGGSLRLSCAASGFTFSSYAMSWVRQAPGKGLEWVSAIYGSDGDTTYADSVKGRFTISRDNSKNTLYLQMNSLRAEDTAVYYCARVFYTAGFDYWGQGTLVTVSSASTKGPSVFPLAPSSKSTSGGTAALGCLVKDYFPEPVTVSWNSGALTSGVHTFPAVLQSSGLYSLSSVVTVPSSSLGTQTYICNVNHKPSNTKVDKKVEPKSCDKTHTCPPCPAPPVAGPSVFLFPPKPKDTLMISRTPEVTCVVVDVSHEDPEVKFNWYVDGVEVHNAKTKPREEQYNSTYRVVSVLTVLHQDWLNGKEYKCKVSNKGLPSSIEKTISKAKGQPREPQVYTLPPSRDELTKNQVSLTCLVKGFYPSDIAVEWESNGQPENNYKTTPPVLDSDGSFFLYSKLTVDKSRWQQGNVFSCSVMHEALHNHYTQKSLSLSPGK
light: DIELTQSPSSLSASVGDRVTITCRASQSISSSLNWYQQKPGKAPKLLIYAASSLQSGVPSRFSGSGSGTDFTLTISSLQPEDFATYYCQQAPAKPPTFGQGTKLEIKRTVAAPSVFIFPPSDEQLKSGTASVVCLLNNFYPREAKVQWKVDNALQSGNSQESVTEQDSKDSTYSLSSTLTLSKADYEKHKVYACEVTHQGLSSPVTKSFNRGEC
modifications: Synthetic sequence A5-IgG1-HC - without signal sequence; Synthetic sequence A5-IgG1-LC - without signal sequence
On to B2, for which the “binding to human ENG by ELISA, in words” value with recombinant human ENG was “concentration-dependent binding”. In addition, the “binding to human ENG by flow cytometry, in words” value with HT1080 cells [5] is “concentration-dependent binding”. Further, the “internalization (time)” value in the series with HT1080 cells [6] (HT1080) lay within 30 to 60 min. Besides, the “share of antibody found within cells” value with HT1080 cells [6] (HT1080 cells, within 30 min, preliminary) was around 90%. The “Tm (DLS)” value in [7] was 72 °C.
